Results as given in PMC10814836.

Target: lamin A/C (human (endogenous in primary myoblasts)) (UniProt P02545)
Assay: proximity ligation; in situ PLA (Duolink) on methanol-fixed human myoblasts after uniaxial cyclic stretching (10% strain, 1 Hz, 4 h); anti-lamin A/C with anti-desmin or anti-plectin 1; 100 nuclei counted per replicate

Chain of UniProt P02545 (P02545 1-646): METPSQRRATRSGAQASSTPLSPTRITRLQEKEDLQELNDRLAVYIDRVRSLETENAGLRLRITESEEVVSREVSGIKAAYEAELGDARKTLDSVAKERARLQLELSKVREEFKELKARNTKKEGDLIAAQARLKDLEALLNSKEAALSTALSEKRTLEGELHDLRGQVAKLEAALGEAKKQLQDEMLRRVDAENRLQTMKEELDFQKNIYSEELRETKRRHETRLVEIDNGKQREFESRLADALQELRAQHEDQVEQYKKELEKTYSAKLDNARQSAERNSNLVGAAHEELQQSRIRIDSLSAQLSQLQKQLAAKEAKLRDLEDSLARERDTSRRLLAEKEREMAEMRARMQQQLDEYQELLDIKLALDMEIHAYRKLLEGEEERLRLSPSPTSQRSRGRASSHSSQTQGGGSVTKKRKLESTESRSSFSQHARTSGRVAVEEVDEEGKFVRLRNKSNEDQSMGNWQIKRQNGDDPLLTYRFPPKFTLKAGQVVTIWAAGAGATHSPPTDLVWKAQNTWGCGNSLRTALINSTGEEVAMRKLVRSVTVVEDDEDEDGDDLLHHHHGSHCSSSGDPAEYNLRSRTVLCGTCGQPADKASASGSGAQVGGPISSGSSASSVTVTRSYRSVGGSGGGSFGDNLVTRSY

plectin 1 (natural protein)
increase of PLA signal relative to non-stimulated cells: 64%
